Patent US20250009876A1 (H LUNDBECK A S, published 2025)
Changes are numbered by the printed parent chain. Each block holds one binder with its values, some of them ahead of it.

What was measured:
[1] = biological target: T1, PACAP38 (Pituitary Adenylate Cyclase-Activating Polypeptide, 38 amino acids) (human, not fully specified; the C-terminal lysine is amidated); assay: cell-based or functional assay
T1 peptide: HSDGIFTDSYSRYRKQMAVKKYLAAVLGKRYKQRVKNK

[2] = biological target: T2, PACAP27 (Pituitary Adenylate Cyclase-Activating Polypeptide, 27 amino acids) (human, the C-terminal leucine is amidated); assay: cell-based or functional assay
T2 peptide: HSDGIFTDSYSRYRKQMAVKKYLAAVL

[3] = biological target: T1, PACAP38 (Pituitary Adenylate …); assay: cell-based or functional assay
[4] = biological target: T1, PACAP38 (Pituitary Adenylate …); assay: cell-based or functional assay
[5] = biological target: T1, PACAP38 (Pituitary Adenylate …); assay: SPR (ProteOn XPR36), antibody amine-coupled, peptide analyte, 1:1 Langmuir fit
How it was run: (§1)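 Antibody amine-coupled to GLC or GLM chips; peptide antigen injected at 1.23 nM to 100 nM, association 2-4 min, dissociation 3-120 min. Sensorgrams fitted to a 1:1 Langmuir model; surfaces regenerated with 0.85% phosphoric acid between analytes.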

[6] = biological target: T2, PACAP27 (Pituitary Adenylate …); assay: as above
How it was run: as §1

[7] = biological target: T3, PAC1-R on PAC1-R-expressing PC-12 cells (UniProt P32215 20-523); assay: cell surface binding assay (DELFIA TRF): antibody pre-incubated with PACAP38, added to PAC1-R-expressing PC-12 cells, detected with Eu anti-human IgG
T3 construct: whole, on cells; also called PAC1 receptor
T3 sequence (looked up): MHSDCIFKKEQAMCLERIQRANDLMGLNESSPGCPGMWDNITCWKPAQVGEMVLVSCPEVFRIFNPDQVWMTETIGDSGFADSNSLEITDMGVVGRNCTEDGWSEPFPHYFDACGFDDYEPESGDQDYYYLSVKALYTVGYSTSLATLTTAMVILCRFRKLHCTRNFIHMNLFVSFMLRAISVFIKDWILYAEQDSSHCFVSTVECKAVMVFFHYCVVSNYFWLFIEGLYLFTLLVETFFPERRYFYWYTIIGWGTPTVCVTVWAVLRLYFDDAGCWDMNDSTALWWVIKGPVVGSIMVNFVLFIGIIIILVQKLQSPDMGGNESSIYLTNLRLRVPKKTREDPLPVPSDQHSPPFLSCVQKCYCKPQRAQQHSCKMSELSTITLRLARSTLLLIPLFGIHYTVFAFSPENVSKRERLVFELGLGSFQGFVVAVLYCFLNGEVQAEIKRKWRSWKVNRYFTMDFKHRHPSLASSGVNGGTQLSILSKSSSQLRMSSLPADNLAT

Inhibition of 0.1 nM PACAP38-induced PAC1-R mediated cAMP increase IC50 (pM) [1]: 163 pM | Inhibition of 0.1 nM PACAP27-induced PAC1-R mediated cAMP increase IC50 (pM) [2]: 84 pM | Inhibition of 5 nM PACAP38-induced human VPAC1-R mediated cAMP increase IC50 (pM) [3]: 1340 pM | Inhibition of 1 nM PACAP38-induced human VPAC2-R mediated cAMP increase IC50 (pM) [4]: 988 pM | Kd [5]: ≤ 0.029 nM | koff [5]: ≤ 1e-05 s⁻¹ | kon [5]: 340000 M⁻¹ s⁻¹ | Kd [6]: 0.033 nM | koff [6]: 1.8e-05 s⁻¹ | kon [6]: 530000 M⁻¹ s⁻¹ | binding result [7]: no binding (tested: about 70 nM)
B1: Ab10.H (antibody, human IgG1, kappa, N297A)
heavy: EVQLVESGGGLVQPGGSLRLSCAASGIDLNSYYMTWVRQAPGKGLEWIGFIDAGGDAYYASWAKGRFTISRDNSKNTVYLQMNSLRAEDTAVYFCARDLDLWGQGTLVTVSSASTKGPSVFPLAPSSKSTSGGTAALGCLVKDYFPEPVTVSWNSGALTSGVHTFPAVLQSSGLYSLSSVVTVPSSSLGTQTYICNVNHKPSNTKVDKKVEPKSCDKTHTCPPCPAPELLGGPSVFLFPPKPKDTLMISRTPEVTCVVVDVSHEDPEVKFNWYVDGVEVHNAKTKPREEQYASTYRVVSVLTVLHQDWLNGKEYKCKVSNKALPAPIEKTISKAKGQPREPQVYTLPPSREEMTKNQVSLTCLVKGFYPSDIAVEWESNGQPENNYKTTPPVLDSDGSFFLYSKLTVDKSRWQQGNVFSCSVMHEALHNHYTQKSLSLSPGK
light: DAQLTQSPSTLSASVGDRVTITCQSSESVYGNYLAWFQQKPGKAPKFLIYEASKLESGVPSRFSGSGSGTEFTLTISSLQPDDFATYYCAGGDISEGVAFGGGTKVEIKRTVAAPSVFIFPPSDEQLKSGTASVVCLLNNFYPREAKVQWKVDNALQSGNSQESVTEQDSKDSTYSLSSTLTLSKADYEKHKVYACEVTHQGLSSPVTKSFNRGEC
notes: Full-length humanized variant of Ab10

Inhibition of 0.1 nM PACAP38-induced PAC1-R mediated cAMP increase IC50 (pM) [1]: 180 pM | Inhibition of 0.1 nM PACAP27-induced PAC1-R mediated cAMP increase IC50 (pM) [2]: 227 pM | Inhibition of 5 nM PACAP38-induced human VPAC1-R mediated cAMP increase IC50 (pM) [3]: 649 pM | Inhibition of 1 nM PACAP38-induced human VPAC2-R mediated cAMP increase IC50 (pM) [4]: 188 pM | Kd [5]: 0.075 nM | koff [5]: 2e-05 s⁻¹ | kon [5]: 260000 M⁻¹ s⁻¹ | Kd [6]: ≤ 0.01 nM | koff [6]: ≤ 1e-05 s⁻¹ | kon [6]: 1e+06 M⁻¹ s⁻¹ | binding result [7]: no binding (tested: about 5000 nM)
B2: Ab10 (antibody, human IgG1, kappa, N297A, V domains shown)
VH: QSVEESGGRLVTPGTPLTLTCTVSGIDLNSYYMTWVRQAPGKGLEWIGFIDAGGDAYYASWAKGRFTISKTSTTVDLKITSPTTEDTATYFCARDLDLWGQGTLVTVSS
VL: AAVLTQTPSPVSAAVGGTVTINCQSSESVYGNYLAWFQQKPGQPPKLLIYEASKLESGVPSRFSGSGSGTQFTLTISDLQCDDAATYYCAGGDISEGVAFGGGTEVVVKR
notes: Full-length anti-PACAP antibody; rabbit variable regions cloned onto human constant regions (rabbit/human chimeric), expressed in HEK-293

Inhibition of 0.1 nM PACAP38-induced PAC1-R mediated cAMP increase IC50 (pM) [1]: 368 pM | Inhibition of 0.1 nM PACAP27-induced PAC1-R mediated cAMP increase IC50 (pM) [2]: 188 pM | Inhibition of 5 nM PACAP38-induced human VPAC1-R mediated cAMP increase IC50 (pM) [3]: 3890 pM | Inhibition of 1 nM PACAP38-induced human VPAC2-R mediated cAMP increase IC50 (pM) [4]: 14600 pM | Kd [5]: 0.21 nM | koff [5]: 2.4e-05 s⁻¹ | kon [5]: 120000 M⁻¹ s⁻¹ | Kd [6]: 0.07 nM | koff [6]: 2.2e-05 s⁻¹ | kon [6]: 320000 M⁻¹ s⁻¹ | binding result [7]: no binding (tested: about 500 nM)
B3: Ab20 (antibody, human IgG1, kappa, N297A, V domains shown)
VH: B2 VH with N29S, T34S, A52T, G53D, D55S, S60T, Q101P
VL: B2 VL with T20S, N22S, G31S, L47F, E56A, S64K, L79V, A85G, D93Y, I94S
notes: Full-length anti-PACAP antibody; rabbit/human chimeric
